In patent publication US20230416321A1 one finds Kd data, which are given here for 4 substances.

Chain of masked TGF-β1 construct, IL-2 - IgG scaffold - TβRII(Δ25, D118A, E55A) mask - TGF-β1 (P01137 other isoform, or with tags, fused parts or gaps, stated change not applied): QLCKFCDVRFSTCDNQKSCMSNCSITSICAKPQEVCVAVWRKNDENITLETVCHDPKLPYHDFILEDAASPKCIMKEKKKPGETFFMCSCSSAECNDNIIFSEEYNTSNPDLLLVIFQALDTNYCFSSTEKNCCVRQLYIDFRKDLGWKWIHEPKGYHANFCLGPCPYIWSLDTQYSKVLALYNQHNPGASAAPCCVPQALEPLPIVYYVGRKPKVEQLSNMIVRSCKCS
Chain of masked TGF-β1 construct, IL-2 - IgG scaffold - TβRII(Δ25, D118A, D32N) mask - TGF-β1 (P01137 other isoform, or with tags, fused parts or gaps, stated change not applied): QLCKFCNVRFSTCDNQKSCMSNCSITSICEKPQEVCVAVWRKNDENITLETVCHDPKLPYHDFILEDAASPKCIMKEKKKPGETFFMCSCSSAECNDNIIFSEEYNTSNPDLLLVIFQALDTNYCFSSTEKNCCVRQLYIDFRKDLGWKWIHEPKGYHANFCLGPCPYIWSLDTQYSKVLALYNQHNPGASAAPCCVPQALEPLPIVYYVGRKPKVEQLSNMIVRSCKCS
Chain of masked TGF-β1 construct, IL-2 - IgG scaffold - TβRII(Δ25, D118A, S52L) mask - TGF-β1 (P01137 other isoform, or with tags, fused parts or gaps, stated change not applied): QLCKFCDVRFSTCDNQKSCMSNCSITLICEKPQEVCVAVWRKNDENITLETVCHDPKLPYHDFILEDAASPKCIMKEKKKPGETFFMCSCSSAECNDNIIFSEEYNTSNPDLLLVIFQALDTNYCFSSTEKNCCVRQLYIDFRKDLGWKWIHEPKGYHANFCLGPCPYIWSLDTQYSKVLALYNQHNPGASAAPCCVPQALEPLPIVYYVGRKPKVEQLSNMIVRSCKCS
Chain of masked TGF-β1 construct, IL-2 - IgG scaffold - TβRII(Δ25, D118A) mask - TGF-β1 (P01137 other isoform, or with tags, fused parts or gaps, stated change not applied): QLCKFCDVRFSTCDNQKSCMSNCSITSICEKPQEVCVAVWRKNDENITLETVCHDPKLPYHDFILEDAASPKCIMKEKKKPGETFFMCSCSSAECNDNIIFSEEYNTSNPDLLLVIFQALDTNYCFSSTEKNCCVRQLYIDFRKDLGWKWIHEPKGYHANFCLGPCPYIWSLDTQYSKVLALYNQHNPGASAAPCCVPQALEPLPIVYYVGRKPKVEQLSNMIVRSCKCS

The target of the experiment is TβRII-IgG Fc fusion protein (human) (UniProt P37173). The experiment can be described thus: capture assay on plate-immobilised TβRII-Fc, detection biotin anti-IL-2 / streptavidin-HRP, TMB 450 nm; Kd from the capture curve.
In turn, “masked TGF-β1 construct, IL-2 - IgG scaffold - TβRII(Δ25, D118A, D32N) mask - TGF-β1 (from UniProt P01137 279-390) (Fc fusion)” showed a Kd of 5.9 µM.

“masked TGF-β1 construct, IL-2 - IgG scaffold - TβRII(Δ25, D118A, S52L) mask - TGF-β1 (from UniProt P01137 279-390) (Fc fusion)” yielded a dissociation constant Kd of 154 µM.

As for “masked TGF-β1 construct, IL-2 - IgG scaffold - TβRII(Δ25, D118A, E55A) mask - TGF-β1 (from UniProt P01137 279-390) (Fc fusion)”, the Kd amounted to 2.99 µM.

Turning to “masked TGF-β1 construct, IL-2 - IgG scaffold - TβRII(Δ25, D118A) mask - TGF-β1 (from UniProt P01137 279-390) (Fc fusion)”, the Kd stood at 1.51 µM.
